Measured values reported in US8013123B2 (B.R.A.H.M.S. GmbH, priority 2004, dated 2011).
Ends that are not written are not given here.

Key:
[1] = Stability of proenkephalin fragments and enkephalins ex vivo (plasma, liquor); assay type: in vitro ADME
Description: In one embodiment the invention is based on and uses the discovered long term stability of proenkephalin and enkephalin-fp ex vivo in plasma (FIG. 3a). […] Proenkephalin and enkephalin-fp are stable as well in liquor.

B- and T-lymphocytes = details: cited from earlier work
[2] = system: gram-positive bacteria like Streptococcus aureus, Bacillus megaterium and Micrococcus luteus; details: cited from earlier work
[3] = system: gram-negative bacteria like Escherichia coli; details: cited from earlier work

## DAEEDDSLANSSDLLKELLETGDNRERSHHQDGSDNEEEVS [enkephalin-fp]
[1]; ex vivo in plasma
  half-life: > 24 h
[1]
  stability in liquor: stable

## methionine enkephalin [Met-ENK]
B- and T-lymphocytes
  proliferation: stimulates the proliferation

B1: Synenkephalin: PENK-A derived peptide with antibacterial properties (peptide, UniProt P01210 25-97, looked up)
Synenkephalin: ECSQDCATCSYRLVRPADINFLACVMECEGKLPSLKIWETCKELLQLSKPELPQDGTSTLRENSKPEESHLLA
modifications: Synenkephalin
[2]
  antibacterial function: antibacterial properties
[3]
  antibacterial function / growth inhibition: antibacterial properties

B2: proenkephalin: precursor of the enkephalins, Sequence ID 1, including its fragments (protein)
chain: ECSQDCATCSYRLVRFADINFLACVMECEGKLPSLKIWETCKELLQLSKPELPQDGTSTLRENSKPEESHLLAKRYGGFMKRYGGFMKKMDELYPMEPEEEANGSEILAKRYGGFMKKNAEEDDSLANSSDLLKELLETGDNRERSHHQDGSDNEEEVSKRYGGFMRGLKRSPQLEDEAKELQKRYGGFMRRVGRPEWWMDYQKRYGGFLKRFAEALPSDEEGESYSKEVPEMEKRYGGFMRF
[1]
  stability in liquor: stable
In vivo half-life
  in vivo half-life: about 24 hours
